From patent US20210379068A1, “METHODS AND MATERIALS FOR TREATING NEUROPSYCHIATRIC DISORDERS” (Mayo Foundation for Medical Education and Research, priority 2018, published 2021)

B1: Cxcl1: Recombinant CXCL1 (Peprotech, #250-11) injected i.p. into lean mice (protein, UniProt P12850 25-96, looked up)
Growth-regulated alpha protein: APIANELRCQCLQTMAGIHLKNIQSLKVLPSGPHCTQTEVIATLKNGREACLDPEAPLVQKIVQKMLKGVPK

Tests used:
Assay type in all cases: in vivo, mouse
obese C57BL/6 mice [1] = assay: Elevated plus maze, HFD mice treated with Reparixin; conditions: HFD C57BL/6 mice; Reparixin 30 mg/kg s.c. twice per day for 2 weeks vs non-treated
Procedure: (§1) Reparixin L-lysine salt (MedChemExpress, #HY-15252) or L-Lysine hydrochloride (MedChemExpress, #HY-N0470) was dissolved in H2O was administered to obese C57BL/6 mice (fed for 2 months with high-fat diet) via subcutaneous injection (30 mg/kg) twice per day for 2 weeks. 2 hours after the last injection mice were tested in open field and elevated plus maze and afterwards dissected. A grey colored elevated plus maze apparatus was used. Two open arms (25×5 cm) and two closed arms (25×5 cm) were attached at right angles to a central platform (5×5 cm). The apparatus was set 40 cm above the floor. Mice were first acclimatized to the room for 1-1.5 hours. Mice were then placed individually on the central platform with their back to one of the open arms. Before the test, mice were habituated for 1 minute to the maze, then placed back in the home cage for 5 minutes. Mice were tested for 5 minutes during which they could freely explore the apparatus. Tracking software (Ethovision) recognizes mouse head, central body point, and the base of the tail. Anxiety was quantified by frequency of and time spent during head pokes/dips toward open arms. Higher anxiety is indicated by a lower frequency of movement into open arms and less time spent there.

obese C57BL/6 mice [2] = assay: Open field test, HFD mice treated with Reparixin; conditions: HFD C57BL/6 mice; Reparixin 30 mg/kg s.c. twice per day for 2 weeks vs non-treated
Procedure: (§2) Reparixin L-lysine salt (MedChemExpress, #HY-15252) or L-Lysine hydrochloride (MedChemExpress, #HY-N0470) was dissolved in H2O was administered to obese C57BL/6 mice (fed for 2 months with high-fat diet) via subcutaneous injection (30 mg/kg) twice per day for 2 weeks. 2 hours after the last injection mice were tested in open field and elevated plus maze and afterwards dissected. Locomotor activity and anxiety-like behavior of mice were assessed in sound-insulated, rectangular activity chambers (Med Associates Inc., St Albans, Vt., USA: W×L×D=27 cm×27 cm×20 cm with continually running fans, infrared lasers, and sensors). Beam breaks were assessed in 2-minute bins over 30 minutes, converted automatically to current mouse location and distance travelled (cm), and recorded on a computer with Med-PC software Version 4.0. Before the test, mice were acclimatized to the room for 1-1.5 hours before being introduced into the chambers. Mice were habituated for 5 minutes in the Open Field chamber (without recording) then placed for another 5 minutes in the home cage. Afterwards, mice were introduced back to the chambers and all mouse movements were recorded for 30 minutes. Anxiety was quantified by the distance mice travelled in the central 25% of the chamber (zone 1) as a function of the total distance mice travelled and by frequencies of entries into zone 1.

lean C57BL/6 [3] = assay: Open field test after Cxcl1 injection; conditions: Cxcl1 5 μg/kg i.p. daily for 7 days vs vehicle
Procedure: (§3) Recombinant CXCL1 (Peprotech, #250-11) or vehicle (PBS) was administered to lean C57BL/6 via i.p. injection (5 μg/kg in PBS) daily for 7 days. 2 hours after the last injection mice were tested in open field and elevated plus maze and afterwards dissected.
as §2, with “Locomotor” for “Reparixin L-lysine salt (MedChemExpress, #HY-15252) or L-Lysine hydrochloride (MedChemExpress, #HY-N0470) was dissolved in H2O was administered to obese C57BL/6 mice (fed for 2 months with high-fat diet) via subcutaneous injection (30 mg/kg) twice per day for 2 weeks. 2 hours after the last injection mice were tested in open field and elevated plus maze and afterwards dissected. Locomotor”

lean C57BL/6 [4] = assay: Elevated plus maze after Cxcl1 injection; conditions: Cxcl1 5 μg/kg i.p. daily for 7 days vs vehicle
Procedure: as §3
as §1, with “A” for “Reparixin L-lysine salt (MedChemExpress, #HY-15252) or L-Lysine hydrochloride (MedChemExpress, #HY-N0470) was dissolved in H2O was administered to obese C57BL/6 mice (fed for 2 months with high-fat diet) via subcutaneous injection (30 mg/kg) twice per day for 2 weeks. 2 hours after the last injection mice were tested in open field and elevated plus maze and afterwards dissected. A”

[5] = Circulating Cxcl1 after Cxcl1 injection in lean C57BL/6 mice; conditions: Cxcl1 5 μg/kg i.p. daily for 7 days vs vehicle
Procedure: as §3
Serum levels of cytokines: Eotaxin, G-Csf, Tnf-α, Il-6, Ifn-γ, Il-1α, Il-1β, Il-17, Il-2, Kc/Cxcl1, Mcp-1, M-Csf, Mig, Mip-1α, and Mip-1β were determined using a Multiplexing LASER Bead Assay (Mouse Cytokine Array/Chemokine Array 31-Plex (MD31), Eve Technologies; Canada). Blood was withdrawn from mice by punctuation of the sub-mandibular vein at the day of dissection before an animal was sacrificed. 50 μL of serum were shipped to Eve Technologies on dry ice. Due to high variability of data an unbiased elimination of outliers was performed using ROUT's method (Graphpad 7 Prism). The same panel was used to detect SASP in MAF and 50 μl of media was shipped to Eve Technologies on dry ice.

Row | Molecule | behavior in the EPM (obese C57BL/6 mice [1]) | behavior in the open field box (obese C57BL/6 mice [2]) | anxiety-like behavior, open field (distance in the central area) (lean C57BL/6 [3]) | anxiety-like behavior, open field (distance in the central area) (lean C57BL/6 [3]; listed as Cxcl-1) | anxiety-like behavior, EPM (head entries in the open arms) (lean C57BL/6 [4]) | anxiety-like behavior, EPM (head entries in the open arms) (lean C57BL/6 [4]; listed as Cxcl-1) | circulating Cxcl1 in blood plasma [5] | circulating Cxcl1 in blood plasma ([5]; listed as Cxcl-1)
1 | CC(C)Cc1ccc([C@@H](C)C(=O)NS(C)(=O)=O)cc1 [Reparixin] | no difference | no difference |  |  |  |  |  | 
2 | B1 |  |  | no difference | not different | no difference | not different | increased levels | significantly increased
